# Data as given in the nanobody polyreactivity screen of Harvey et al. (2022).
# Experiment: yeast display, Sf9 membrane polyspecificity reagent, FACS + sequencing; frameworks hold sequencing errors
# In short: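 Synthetic nanobody libraries on Saccharomyces cerevisiae BJ5465 were galactose-induced for 36–48 hours, stained 1 hour at 4 °C with 10% biotinylated, detergent-solubilized Sf9 membrane reagent and enriched on streptavidin microbeads. FACS then separated cells into low and high (top ~1%) gates by anti-HA (expression) and streptavidin (reagent binding) fluorescence. Genes were colony-PCR amplified, MiSeq 2 × 250 sequenced and CDR-length filtered. A clone's polyreactivity label is that of its gate of origin.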
row,Sequence,polyreactivity (PSR sort gate)
1,QDQLVDSGGGLVQAGGSLRLSCAASVRTFDRYAMGWYRQAPGKVRELVAAISGRGGSTYYADSVKGRFTISRDNAKNTVYLQMNSLKPEDTAVYYCAARGSLWGAPSDYYYCGQGTQVTVSS,high polyreactivity
2,QVQLVESGGGLVQAGGSLRLSCAASGFTIYGYVMGWYRQAPGKERELVAAISWSGGSTYYADSVKGRFTISRDNAKNTVYLQMNSLKPEDTAVYYCAAEGWSDYTSRLYDYWGQGTQVTVSS,low polyreactivity
3,QVLLVESGGGLVQAGGSLRLSCAASGFTFGVYAMRWYRQAPGKERELVAAISTTVGSTYYADSVKGRFTISRDNAKNTVYLQMNSLKPEDTAVYYCHYPYDYWGQATQVTVSS,low polyreactivity
4,QVQLVESGGGLVQAGGSLRLSCAASGRILWSYAMGWYRQAPGKEREFVATINRSGGNTHYADSVKGRFTISRDNAKNTVYLQMNSLKPEDTAVYYCAARNLVPYGYQGLRYYYWGQGTQVTVSS,high polyreactivity
5,QVQLVESGGGLVQAGGSLRLSCAGSGRIFREYPMGAYRHAPGKARELVAAITASGGGTYYADSVKGRFTLSRDNAKNTVYLQMNSLKPEDSAVYYCNAVLAPGGYDYWGQGTQVTVSS,low polyreactivity
6,QVQLVESGGGLVQAGGSLRLSCAASGNTVFKNAMVWYRQAPGKERELVAAISKRGGSTYYADSVKGRFTISRDNAKNTVYIQMNSLIPEDTAVYYCAADTFGVYASTYDYWGQGTQVTVSS,high polyreactivity
7,QVQLVESGGGLVQAGGSLRLSCAASGITFGDNAMGWYRQAPGKERELVAAITLSDVDTYADSVKGRFTISRDNAKNTVYLQMNSLKPEDTAVYYCAADYDFFSSKRFDYWGQGTQVTVSS,low polyreactivity
8,QVQLVESGGGLVQAGGSLRLSCAASGSISGYYVMGWYRQAQGKERELVAAITWRGGSTYYADSVKGRFTISRDNAKNTVYLQMNSLKPEDTAVYYCNKVPGRGSTFEYWGQGTQVTVSS,high polyreactivity
9,QVQHVESGGGLVQAGRSLPLSCAASGSIFWDNALGWYRQATGKEMVLVAAITSCGDTTYYADSVKGRFTISRDNSKNTVYLQMNSLKPEDTAVYYCATDSNWYWGFNYWGQGTQVTVSS,low polyreactivity
10,QVQHVESGGGLVQAGGSLRLSCAASGFTFAYYAKGWYRQAPGKERELVARISSGGSTYYADSVKGRFTISRDNAKNTVYLQMNSLKPEDTAVYYCAARSYYISPWRFDYWGQGTQVTVSS,high polyreactivity
11,QVQLVESGGGLVQAGGSLRLSCAASGFTFQTYAMGWYRQAPGKERELVATINSSGGGTYYADSVKGRFTISRDNAKNTVYLQMNSLKPEDTAVYYCAADAVWFVGQAFDISDSTTYGYWGQGTQVTVSS,low polyreactivity
12,QVQLVESGGGLVQAGGSLRLSCAASGRIFLVYAMGWYRQAPGKERELVAAITKRGGSTYYADSVKGRFTISRDNAKNTVYLQMNSLKPEDTAVYYCAADGYTRGYDYWGQGTQVTVSS,high polyreactivity
13,QVQLVESGGGLVQAGGSLRLSCAASGLILYSYAMGWYRQAPGKERELVADISSGGITNYADSVKGRFTISRDNAKNTVYLQMNSLKPEDTAVYYCAADTRPVNYILYDYWGQGTQVTVSS,low polyreactivity
14,QVQLVESGGGLVQAGGSLRLSCAASGRTFGYNAMGWYRQAPGKERELVAAIRTIGDSTYYADSVKGRFTISRDNAKNSVYLQMNSLKPEDTAVYYCAARKLRSRYDYWGQGTQVTVSS,high polyreactivity
15,QVHLVESGGGLVQAGGSLRLSCAASGSIFSVNDMGWYRQAPGKERELVAAISSGGSTNYADSVKGRFTISRDNAKNTVSLQMNSLKPEDTAVYYCAADFYVVYWGTYSVGYDYWGQGTQVTVSS,low polyreactivity
16,QVQLVESGGGLVQAGGSLRLSCAASGSIFSYYAMGWSRQAPGKERELVAAISSGGSRTYYADSVKGRFTISRDNAKNTVYLQMNSLKPEDTAVYYCNAPAPARYYRGHDYWGQGTQVTVSS,high polyreactivity
17,QVQLVESGGGLVQAGGSLRLSCAASGRIVVGYVMGWYRQSPGKERELVADIRSRGDSTYYADSVKGRFTISRDNAKNTVYLQMNSLKPEDTAVYYCNVLGYSYWGQGTQVTVSS,high polyreactivity
18,HVQLVESGGGLVQAGCSLRLSCAASGSIFLRNTMGWYRQAPGKEREFVAAITKRGGTTYYADSVKGRFTMSRDNAKNTVYLQMNSLKPDDTAVYYCAKSYDNEYGYWGQGTQVTVSS,high polyreactivity
19,QVQLVESGGGLVQAGGSLRLSCAASGSTFSKYAMGWYRQAPVKERELVAGIRGRGGSAYYADSVKGRFTISRDNAKNTVYLQMNSLKPEDTAVYYCAKEARLWGQGTQVTVSS,low polyreactivity
20,QVQLVESGVGLVQAGGSLRLSCAASGFSFAVYGMGSYIQAPGKQRELVAAISTGDSTKYADSVKARFTISRDNAKNTVYLQKNSLKPEDTEVYYCAARIPWSPWLGYWGQGTQVTVST,high polyreactivity
21,QVQLVESGGGLVQAGGSLLLSCAASGYIFWSNTMGWYRQAPGKERELVAAISQSTASTYYADSVKGRFTISRDNAKNTVYLQMNSLKPEDTAVYYCAAYYNFGDYEYDYWGQGTQVTVSS,low polyreactivity
